# According to patent US20220175944A1 (MAGENTA THERAPEUTICS, published 2022):
# Columns and labels:
# Experiment in all cases: cell-based or functional assay
# [1] = target: T1, Human CD117 on Kasumi-1 cells or primary human CD34+ bone marrow cells (human, UniProt P10721 26-976)
# [2] = target: T1, Human CD117 on Kasumi-1 cells or …; remark: listed apart in the source
# [3] = target: Baboon CD117 on baboon CD34+ bone marrow cells (baboon)
# T1 sequence (P10721 26-976 limits assumed): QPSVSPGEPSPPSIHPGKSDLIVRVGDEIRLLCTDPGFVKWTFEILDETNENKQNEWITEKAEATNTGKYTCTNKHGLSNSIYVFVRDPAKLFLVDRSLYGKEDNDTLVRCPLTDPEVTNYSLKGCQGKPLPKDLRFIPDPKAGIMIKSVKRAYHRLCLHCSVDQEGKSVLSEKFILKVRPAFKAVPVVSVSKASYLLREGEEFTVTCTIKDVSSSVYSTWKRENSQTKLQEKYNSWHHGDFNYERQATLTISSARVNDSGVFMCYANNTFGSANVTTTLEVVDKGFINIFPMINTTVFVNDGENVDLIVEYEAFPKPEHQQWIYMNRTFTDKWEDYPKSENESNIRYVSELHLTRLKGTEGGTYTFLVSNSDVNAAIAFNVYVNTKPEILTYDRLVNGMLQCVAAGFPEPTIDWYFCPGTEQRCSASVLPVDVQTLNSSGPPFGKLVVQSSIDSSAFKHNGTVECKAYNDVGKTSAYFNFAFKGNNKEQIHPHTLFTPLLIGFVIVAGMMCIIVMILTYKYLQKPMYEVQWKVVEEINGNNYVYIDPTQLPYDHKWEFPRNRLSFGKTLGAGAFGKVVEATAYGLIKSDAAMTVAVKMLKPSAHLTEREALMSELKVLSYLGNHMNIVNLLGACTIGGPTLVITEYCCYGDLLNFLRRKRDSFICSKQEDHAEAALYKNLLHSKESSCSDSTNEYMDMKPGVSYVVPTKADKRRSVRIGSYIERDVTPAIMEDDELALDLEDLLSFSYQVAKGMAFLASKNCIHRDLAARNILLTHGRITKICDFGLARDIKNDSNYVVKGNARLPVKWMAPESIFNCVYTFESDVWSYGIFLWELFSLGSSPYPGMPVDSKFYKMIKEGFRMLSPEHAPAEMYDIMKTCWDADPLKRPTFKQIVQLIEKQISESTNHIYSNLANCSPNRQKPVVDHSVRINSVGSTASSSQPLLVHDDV
Binder,"% Efficacy, in vitro Kasumi cell killing assay [1] [%]","% Efficacy, in vitro hCD34 cell killing assay [2] [%]","IC50, killing of baboon CD34+ bone marrow cells (live cell counts by flow cytometry) [3] [nM]"
"CK6 S239C-PBD (antibody, V domains shown, PBD (DNA cross linker) conjugated to the antibody, Fc modification S239C, DAR 1.7) VH: QVQLVQSGAAVKKPGESLKISCKGSGYRFTSYWIGWVRQMPGKGLEWMGIIYPGDSDTRYSPSFQGQVTISAGKSISTAYLQWSSLKASDTAMYYCARHGRGYNGYEGAFDIWGQGTMVTVSS VL: AIQLTQSPSSLSASVGDRVTITCRASQGISSALAWYQQKPGKAPKLLIYDASSLESGVPSRFSGSGSGTDFTLTISSLQPEDFATYYCQQFNSYPLTFGGGTKVEIK",60.7,97.3,0.00066
"CK6-SET0207 (Fc modification D265C H435A) (antibody, V domains shown, SET0207 payload ('Non-cleavable natural') conjugated to the antibody, Fc modification D265C H435A, DAR 2.0) VH: QVQLVQSGAAVKKPGESLKISCKGSGYRFTSYWIGWVRQMPGKGLEWMGIIYPGDSDTRYSPSFQGQVTISAGKSISTAYLQWSSLKASDTAMYYCARHGRGYNGYEGAFDIWGQGTMVTVSS VL: AIQLTQSPSSLSASVGDRVTITCRASQGISSALAWYQQKPGKAPKLLIYDASSLESGVPSRFSGSGSGTDFTLTISSLQPEDFATYYCQQFNSYPLTFGGGTKVEIK",0,9.18,–
"CK6 S239C-DM (duocarmycin) (antibody, V domains shown, duocarmycin (DM) conjugated to the antibody, Fc modification S239C, DAR 1.65) VH: QVQLVQSGAAVKKPGESLKISCKGSGYRFTSYWIGWVRQMPGKGLEWMGIIYPGDSDTRYSPSFQGQVTISAGKSISTAYLQWSSLKASDTAMYYCARHGRGYNGYEGAFDIWGQGTMVTVSS VL: AIQLTQSPSSLSASVGDRVTITCRASQGISSALAWYQQKPGKAPKLLIYDASSLESGVPSRFSGSGSGTDFTLTISSLQPEDFATYYCQQFNSYPLTFGGGTKVEIK",0,66.2,–
"CK6 S239C-PNU (antibody, V domains shown, PNU (DNA topoisomerase I/II inhibitor) conjugated to the antibody, Fc modification S239C, DAR 1.4) VH: QVQLVQSGAAVKKPGESLKISCKGSGYRFTSYWIGWVRQMPGKGLEWMGIIYPGDSDTRYSPSFQGQVTISAGKSISTAYLQWSSLKASDTAMYYCARHGRGYNGYEGAFDIWGQGTMVTVSS VL: AIQLTQSPSSLSASVGDRVTITCRASQGISSALAWYQQKPGKAPKLLIYDASSLESGVPSRFSGSGSGTDFTLTISSLQPEDFATYYCQQFNSYPLTFGGGTKVEIK",85.7,74.4,–
"CK6 S239C-D4 (calicheamicin) (antibody, V domains shown, calicheamicin (D4) conjugated to the antibody, Fc modification S239C, DAR 1.72) VH: QVQLVQSGAAVKKPGESLKISCKGSGYRFTSYWIGWVRQMPGKGLEWMGIIYPGDSDTRYSPSFQGQVTISAGKSISTAYLQWSSLKASDTAMYYCARHGRGYNGYEGAFDIWGQGTMVTVSS VL: AIQLTQSPSSLSASVGDRVTITCRASQGISSALAWYQQKPGKAPKLLIYDASSLESGVPSRFSGSGSGTDFTLTISSLQPEDFATYYCQQFNSYPLTFGGGTKVEIK",0,52.3,14.6
